test: yeast display, Sf9 membrane polyspecificity reagent, FACS + sequencing; frameworks hold sequencing errors
Summary of the method: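 Galactose induction of a Saccharomyces cerevisiae BJ5465 synthetic nanobody display library ran 36–48 hours. The cells were then stained for 1 hour at 4 °C with 10% biotinylated, detergent-solubilized Sf9 membrane reagent, pulled down on streptavidin microbeads and FACS-sorted into low and high (top ~1%) gates on expression and reagent-binding fluorescence. Labels for polyreactivity follow the gate of origin.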

Row | Sequence | polyreactivity (PSR sort gate)
1 | QVQLVESGGGLVQAGGSLRLSCAASGFIFSRYAMGWYRQAPGKERELGATINTNGGSTYYAYSVKGRFTISRDNAKNTVYLQMNSLKPEDTAVYYCNAKYQALQRSWGRYDYWGQGTQVTVSS | low polyreactivity
2 | QVQLVESGGGLVQAGGSLRLALLPPDLPSTLNDMGLYRQAPGKERELVAAITRGGSTNYADSVKGRFTISRDNAKNTVYLQMNSLKPEDTADYYCAAPYAGWRDGGDYWGQGTQVTVSS | low polyreactivity
3 | QVQLVESGGGLVQAGGSLRLSCAASGFIVSTKVMGWYRQAPGKERELVADINTGGSTSYADSVKGRFTNSRDNAKNTVYLQMNSLKPEDTAVYSCAAVLQYYYLSTDDPYDYWGQGTQVTVSS | low polyreactivity
4 | QVQLGESGGGLVQAGGSLRLSCAASGRTFYGYPMGWYRQAPGKERELVAAISRNGASTFYADSVKGRFTISRDNAKNTVYLQMNSLKPEDTAVYYCNARSWRHTDTSFEYWGQGTQVTVSS | high polyreactivity
5 | QVQLVESGGGLVQAGGSLRLSCAASGITFWVYAMGWYRQSPGKESELVATISRSGGRTYYADSVKGRFTISRDNAKTTVYLQMNSLKPEDTAVYYCAARYRNVLGYDYDFWGQGTQVTVSS | high polyreactivity
6 | QVQLVDSGGGLVQAGGSLRLSCAASGRTIWRNAMGWYRQAPGKERELVAAIRWSGGRTYADSVKGRFTISRDKAKNTVYLQMNILKPEDTAVYYCNARGLSDWTLKLDYWGQGTQVTVSS | low polyreactivity
7 | QVQLVESGGGLVQAGGSLRLSCAASGRIFVTNAMGWYRQAPGKERELVAAISYRGGRTYYADSVKGRFTISRDNAKNTVYLQMNSLKPEDTAVYYCNAVTRWPFDYWGQGTQVTVSS | high polyreactivity
8 | QVQLVESGGGLVQAGGSLRLSCAASGRTFVYNAMGWYRQAPGKERELVAAISSSGGSTRYADSVKGRFTISRDNAMNTVYLQMNSLKPEDTAVYYCATRTKAYLYTYYYWGQGTQVTVSS | high polyreactivity
9 | QVQLVESGVGLVQAGGSLRLSCAASGFTFRYYAMGWYRQAPGKERELVAAIRSGGRTYYADSVKGRFTISRDNAKNTVYLQMNSLKPEDTAVYYCNAKYKYSRGYDYWGQGTQVTVSS | high polyreactivity
10 | QVQVVESGGGLVQAGGSLRLSCAASGSTFGYYAMGWYRQAPGKERELVAAISGTGSTYYADSVKGRFTISRDNAKNTVFLQMNSLKPEDTAVYYCAAYPRGSQRYNYWGQGTQVTVSS | high polyreactivity
11 | QVQLVESGGGLVQAGGSLRLSCAASGSIFASNAMGCYRQAPGKERELVAAINSGDSTNYADSVKGRFTISRDNAKNTVYLQMNSLKPEDTAVYYCARGLEERYDYWGQGTQVTVSS | low polyreactivity
12 | QVQLVESGGGLVQAGGSLRLSCAASGRTWSNAMGWYRQAPGKERELVAVITWDGVITYYADSVKGRFTISRDNAKNTVYLQMNSLKPEETAVYYCAATVYPGAGDYWGQGTQVTVSS | high polyreactivity
13 | QVQLVESGGGLVQAGGSLRLSCADYGIIFSPYAMGWYRQAPGKERELVAAISYSGGSTYYADSVKGRFTISRDNAKNTVKLQMNSLKPEDTAVYYCAVVYSYYLAVLGYWDYDYWGQGTQVTVSS | low polyreactivity
14 | QVQLVESGGGLVQAGGSLRLSCAASGITFSRYAMGWYRQAPGKERELVASISTSGGSTYYADSVKGRFTISRDNAKNTVYLQMNSLKPEDTAVYYCAASVWSSRRFGYWGQGTQVSVSS | high polyreactivity
15 | QVQLVESGGGLVQAGGSLRLSCAASGSTFRANAMGWYRQAPGKERELVAAITSGGSTNYADSVKGRFTISRDNAKNTVYLQMNCLKPEDTAVYYCADESYQEHSFYVYYGYDYWGQGTQVTVSS | low polyreactivity
16 | QVQLVESGGRLVQAGGSLRLSCADSGRTFYLYAMGWYRQAPGKEREFVADITFSGASTDYAASVKGRFTISRDNAKNTVYLQMNSLKPEDTAVYYCNADIAHVCWWSYPTDDYWGQGTQVTVSS | high polyreactivity
17 | QVQLVESGGGLVQAGGSLRLSCAASGRTFGRYALGWYRQAPGKERELVATITSGGSTNYADSVKGRFTISRDNAKNTVYLQMNSLKPEDTAVYYCAAEFSPSRWAYSEGALRYNYWGQGTQVTVSS | low polyreactivity
18 | QVQLVESGGGLVQAGGSLRLSCAASGSTFWPYAMGWYRQAPGKERELVAAISNGGGTKYADSVKGRFTISRDNAKNTVYLQMNSLKPEDTAVYYCAKTLWTGRAWYDYWGQGTQVTVSS | high polyreactivity
19 | QVQLVESCGGLVQAGGSLRLSCAASGSIFYFNAMGWYREAPGKERELVAAINISGSSTSYADSVKGRFTISRDNAKNTVYLQMNSLKPEDTAVYYCAAEDEPRILIVRVWDYYWGQGTQVTVSS | low polyreactivity
20 | QAQSVESGGGLVQAGGSLRLICAASGITFGNYAMGWYRQAPGKERALVASISWNVGSTYYADSVKGRFTISRDNAKNTVYLQMNSLKPEDTSVYYCARGYDRPRVATFHRFDYWGQGTQVTVSS | low polyreactivity
21 | QVQLVESGGGLVQAGGSLRLSCAASGSTFLPNAMGWYRQAPGKERELVATITFDGGSTYYADSVKGRFTISRDNAKNTVYLQMNSLKPEDTAVYYCNTVELYWRGYDYWGQGTQVTVSS | high polyreactivity
22 | QVQLVESGGGLVQAGGSLRLSCAASGFTFEYNAMGWYRQAPGKERELVAAISRSGGSTYYADSVKGRFTISRDNAKNTVYLQMNSLIPEDTAVYYCAAEPYPLPSYGYWGQGTQVTVSS | high polyreactivity
23 | QVQLVESGGGLVQAGGSLRLSCAASGFTLYFYVMGWYRQAPGKERELVAAITSGGSTYYADSVKGRFTISRDNAKNTVYLQMNSLKPEDTAVYYCAARRSPSRRYLGNYWGQGTQVTVSS | high polyreactivity
24 | QVQLVESGGGLVQAGGSLRLSCAASGRTFGVNAMGWYRQAPRKERELVARIRVSGGRTYYADSVKGRFTISRDNAKNSVYLLMNSLKPEDTAVYYCNAGDTYNRVIWPYYYCGQGTQVTVSS | high polyreactivity
25 | QVQLVESGGGLVQAGGSLRLSCAASGLTFFRNAMGWYREATGKERELVATITSTSSTNYADSVKGRFTISRDNAKNSVYLQMNSLIPEDTAVYYCAARTVGRKAGFDYWGQGTQVTVSS | high polyreactivity
26 | QVQLVESGGGLVQAGGSLRLSCAAYGSTLTRNAMGWYRQAPGKERELVATITATGGSTYYADSVKGRFTISRDNAKNTVYLQMTSLKPEDTAVYYCNKVYREYSLSYWSPTHWAYYYWGQGTQVTVSS | low polyreactivity
27 | QVQLVESGGGLVQAGGSLRLSCAASGSTFTGNAMGWYRQAPGKERELVASISTGGSTNYADSVKGRFTISRDNAKNTVYLQMNSLKPEDTAVYYCATDYCFKDSVVDFDYWGQGTQVTVSS | low polyreactivity
28 | QVQLVESGGGLVQAGGSLRLSCAASGRTFWYNTMGWYRQAPGKERELVAAISTGGSTNYADSVKGRFTISRDNAKNTVYLQMNSLIPEDTAVYYCAALIYYWSGRPRFDQARDYDYWGQGTQVTVSS | low polyreactivity
29 | QVQLVESAGGLVQAGGSLRLSCAASGIIFDTNAMGCYRQAPGKERELVASISKRGGSTYYADSVKGRFTISRDNAKNTVYLQMNSLKPEDTAVYYCNALRRRQYHDDYWGQGTQVTVSS | high polyreactivity
30 | QVQLVESGGGLVQAGGSLRLSCAASGSTFPAYAMGWYRQAPGKERELVAGISSGGRTYYADSVKGRFTISRDNAKNTVYLQMNSLKPEDTWVYYCAAFRFYWQRPERYYYWGQGTQVTVSS | high polyreactivity

Reference: the nanobody polyreactivity screen of Harvey et al. (2022)
